{"source": "patent US20140080161A1", "about": "“PHOSPHATASE COUPLED KINASE ASSAY” (RESEARCH AND DIAGNOSTIC SYSTEMS, INC., priority 2010, published 2014)", "molecules": {"B1": {"name": "rhCD39L2: recombinant human CD39L2, nucleotide phosphatase preferring ADP over ATP, used for coupling (protein, UniProt O75354 1-484, looked up)", "Ectonucleoside triphosphate …": "MKKGIRYETSRKTSYIFQQPQHGPWQTRMRKISNHGSLRVAKVAYPLGLCVGVFIYVAYIKWHRATATQAFFSITRAAPGARWGQQAHSPLGTAADGHEVFYGIMFDAGSTGTRVHVFQFTRPPRETPTLTHETFKALKPGLSAYADDVEKSAQGIRELLDVAKQDIPFDFWKATPLVLKATAGLRLLPGEKAQKLLQKVKKVFKASPFLVGDDCVSIMNGTDEGVSAWITINFLTGSLKTPGGSSVGMLDLGGGSTQIAFLPRVEGTLQASPPGYLTALRMFNRTYKLYSYSYLGLGLMSARLAILGGVEGQPAKDGKELVSPCLSPSFKGEWEHAEVTYRVSGQKAAASLHELCAARVSEVLQNRVHRTEEVKHVDFYAFSYYYDLAAGVGLIDAEKGGSLVVGDFEIAAKYVCRTLETQPQSSPFSCMDLTYVSLLLQEFGFPRSKVLKLTRKIDNVETSWALGAIFHYIDSLNRQKSPAS"}}, "key": {"[1]": {"assay": "Coupling efficiency: ADP hydrolysis in presence versus absence of ATP", "assay_type": "biochemical", "conditions": "for Slope of ADP Hydrolysis Curve (Si): 0.2 μg rhCD39L2, 20 minutes", "text": "The coupling efficiency of a phosphatase may be determined by measuring the rates of ADP hydrolysis in the presence of ATP, and in the absence of ATP, under conditions which are otherwise the same. The coupling efficiency is the ratio of the ADP hydrolysis rate in the presence of ATP to the ADP hydrolysis rate in the absence of ATP. As exemplified in Example 3 (FIG. 4), the coupling efficiency in the presence of i mM of ATP, Ci, is equal to the ratio of the slope of the corresponding ADP hydrolysis curve in the presence of i mM of ATP, Si, to the slope of the ADP hydrolysis curve in the absence of ATP, So. The coupling efficiency may be characterized by the following formula: […]\nThe coupling efficiency will vary depending upon the concentration of ATP. As such, the Ci may be calculated at various ATP concentrations and the results may be plotted to give a curve of coupling efficiency versus ATP concentration. In this way, the coupling efficiency may be determined for any concentration of ATP, such as the beginning concentration of ATP used in a reaction. The coupling efficiency can be obtained once the conditions for a kinase reaction are determined and may then be used to adjust the final measured kinase activity depending upon the ATP concentration. For example, the final measured ADP production may be divided by the coupling efficiency (assuming that the ATP concentration throughout the reaction is approximately constant) in order to calculate the actual ADP production. The coupling efficiency allows for measuring the kinase activity even at high levels of ATP, such as at intracellular ATP concentration levels, about 1 mM, which may be most biologically relevant for some reactions.\nThis experiment measured the coupling efficiency of CD39L2, which was the ratio of the rate of ADP hydrolysis in the presence of ATP to the rate of ADP hydrolysis in the absence of ATP, under conditions which were otherwise identical. In a series of reactions, increasing amounts of ADP (0 to 15 nmol, within the coupling capacity) were hydrolyzed with 0.2 μg of rhCD39L2 in the presence of various concentrations of ATP (0, 0.156, 0.312, 0.625, 1.25, 2.5, or 5 mM). The reactions were stopped after 20 minutes and the Malachite Green assay was performed and OD readings were taken at 620 nm.\nCoupling efficiency in the presence of i mM of ATP (Ci) was determined from the ratio of the slope of the ADP hydrolysis curve in the presence of i mM ATP (Si) to the slope of the ADP hydrolysis curve in the absence of ATP (S0) according to Equation 1. For each concentration of ATP, Ci was calculated. […] The coupling efficiency may then be used to correct the data obtained for any competitive inhibition that might be caused by the ATP, especially at high concentrations of ATP."}, "[2]": {"assay": "ATP hydrolysis curve with increasing amounts of phosphatase, free phosphate by Malachite Green", "assay_type": "biochemical", "conditions": "0.25 μg phosphatase, 100 nmol of 2 mM ATP, 20 minutes", "text": "The relative activity of the phosphatase on ADP and ATP can be measured by creating hydrolysis curves for ADP and ATP. For example, such hydrolysis curves may be created by performing a series of reactions separately combining set quantities of ADP or ATP with varying quantities of phosphatase and detecting the free phosphate produced. An example of such curves is described in Example 1 below. The resulting phosphate levels (or OD readings, which directly correspond to the phosphate levels) can be plotted against the amount of phosphatase used. The phosphate level or OD readings can be compared at the same quantity of the phosphatase to determine the relative activity of the phosphatase for ADP as compared to ATP. […]\nThe kinase reactions were carried out in 50 μL of kinase assay buffer including 25 mM Tris, 150 mM NaCl, 5 mM MgCl2, and 5 mM CaCl2 at pH 7.5 in a 96 well plate at room temperature. […] The color was developed with 30 μL Malachite Reagent B. The plate was read at 620 nm with a multi-well plate reader. […]\nIn this experiment, the relative activity of rhCD39L2 on ADP and ATP was determined. […] The reactions were stopped after 20 minutes and free phosphate was measured using the Malachite Green assay as described above.\nThe relative activity of recombinant mouse CD 39L2 (rmCD39L2) on ADP and ATP was determined in a series of reactions similar to Example 1. […]"}}}
{"molecule": "B1", "values": [{"measurement": "coupling efficiency", "setting": "[1]; 0.2 mM ATP, based on data of Example 3", "result": 0.9}, {"measurement": "coupling efficiency", "setting": "[1]; 2 mM ATP, based on data of Example 3", "result": 0.51}, {"measurement": "coupling efficiency", "setting": "[1]; 4 mM ATP, predicted from data of Example 3 (FIG. 5)", "result": 0.4}, {"measurement": "Coupling Efficiency (Ci)", "setting": "[1]; ATP 0 mM", "result": 1.00}, {"measurement": "Slope of ADP Hydrolysis Curve (Si)", "setting": "[1]; ATP 0 mM", "result": 0.280}, {"measurement": "Coupling Efficiency (Ci)", "setting": "[1]; ATP 0.156 mM", "result": 0.97}, {"measurement": "Slope of ADP Hydrolysis Curve (Si)", "setting": "[1]; ATP 0.156 mM", "result": 0.271}, {"measurement": "Coupling Efficiency (Ci)", "setting": "[1]; ATP 0.312 mM", "result": 0.74}, {"measurement": "Slope of ADP Hydrolysis Curve (Si)", "setting": "[1]; ATP 0.312 mM", "result": 0.207}, {"measurement": "Coupling Efficiency (Ci)", "setting": "[1]; ATP 0.625 mM", "result": 0.61}, {"measurement": "Slope of ADP Hydrolysis Curve (Si)", "setting": "[1]; ATP 0.625 mM", "result": 0.170}, {"measurement": "Coupling Efficiency (Ci)", "setting": "[1]; ATP 1.25 mM", "result": 0.56}, {"measurement": "Slope of ADP Hydrolysis Curve (Si)", "setting": "[1]; ATP 1.25 mM", "result": 0.157}, {"measurement": "Coupling Efficiency (Ci)", "setting": "[1]; ATP 2.50 mM", "result": 0.48}, {"measurement": "Slope of ADP Hydrolysis Curve (Si)", "setting": "[1]; ATP 2.50 mM", "result": 0.134}, {"measurement": "Coupling Efficiency (Ci)", "setting": "[1]; ATP 5.0 mM", "result": 0.34}, {"measurement": "Slope of ADP Hydrolysis Curve (Si)", "setting": "[1]; ATP 5.0 mM", "result": 0.096}, {"measurement": "phosphate released from ATP", "setting": "[2]", "result": "less than 3 nmole"}]}
